Numbering of substitutions follows the chain as printed. Numbers in names are those of the source. Values belong to the binder of their own block, whether it stands above or below them.
Target: T1, CD3 epsilon homodimer protein (UniProt P07766 23-126)
T1 construct: also called CD3 (CD3 epsilon)
Test: SPR (Biacore T200), CD3e homodimer on CM4 chip, antibody as analyte; KD ratio vs unaltered GLS3000;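 also: CD3 epsilon homodimer amine-coupled to the sensor surface, antibodies injected as analyte at 25 °C with HBS-EP+ running buffer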

T1 sequence (P07766 23-126): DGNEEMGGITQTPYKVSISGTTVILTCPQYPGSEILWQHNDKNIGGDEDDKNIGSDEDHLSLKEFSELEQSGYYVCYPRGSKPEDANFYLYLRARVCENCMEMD

B1: CE115HA000/GLS3000 K50L one-arm antibody (antibody, human IgG1, kappa, L234A L235A, N297A, name in Kabat numbering)
heavy: QVQLVESGGGVVQPGRSLRLSCAASGFTFSNAWMHWVRQAPGKGLEWVAQIKAKSNNYATYYAESVKGRFTISRDDSKNSLYLQMNSLKTEDTAVYYCRYVHYGAYYGVDAWGQGTTVTVSSASTKGPSVFPLAPSSKSTSGGTAALGCLVKDYFPEPVTVSWNSGALTSGVHTFPAVLQSSGLYSLSSVVTVPSSSLGTQTYICNVNHKPSNTKVDKKVEPKSCDKTHTCPPCPAPEAAGGPSVFLFPPKPKDTLMISRTPEVTCVVVDVSHEDPEVKFNWYVDGVEVHNAKTKPREEQYASTYRVVSVLTVLHQDWLNGKEYKCKVSNKALPAPIEKTISKAKGQPREPQVYTLPPSRCELTKNQVSLSCAVKGFYPSDIAVEWESNGQPENNYKTTPPVLDSDGSFFLVSKLTVDKSRWQQGNVFSCSVMHEALHNHYTQKSLSLSPDYKDDDDK
chain: EPKSSDKTHTCPPCPAPELLGGPSVFLFPPKPKDTLMISRTPEVTCVVVDVSHEDPEVKFNWYVDGVEVHNAKTKPREEQYNSTYRVVSVLTVLHQDWLNGKEYKCKVSNKALPAPIEKTISKAKGQPREPQVCTLPPSRDELTKNQVSLWCLVKGFYPSDIAVEWESNGQPENNYKTTPPVLDSDGSFFLYSKLTVDKSRWQQGNVFSCSVMHEALHNRYTQKSLSLSP
light: DIVMTQSPLSLPVTPGEPASISCRSSQSLVHSNRNTYLHWYQQKPGQAPRLLIYLVSNRFSGVPDRFSGSGSGTDFTLKISRVEAEDVGVYYCGQGTQVPYTFGQGTKLEIKRTVAAPSVFIFPPSDEQLKSGTASVVCLLNNFYPREAKVQWKVDNALQSGNSQESVTEQDSKDSTYSLSSTLTLSKADYEKHKVYACEVTHQGLSSPVTKSFNRGEC
notes: one-arm IgG1
KD ratio to GLS3000: 36.4 ratio

B3: CE115HA000/GLS3000 K50Q one-arm antibody (antibody, human IgG1, kappa, L234A L235A, N297A, name in Kabat numbering)
heavy: B1 heavy
chain: B1 chain
light: B1 light with L55Q
notes: one-arm IgG1
KD ratio to GLS3000: 8.13 ratio

B4: CE115HA000/GLS3000 K50S one-arm antibody (antibody, human IgG1, kappa, L234A L235A, N297A, name in Kabat numbering)
heavy: B1 heavy
chain: B1 chain
light: B1 light with L55S
notes: one-arm IgG1
KD ratio to GLS3000: 45.3 ratio

B5: CE115HA000/GLS3000 K50T one-arm antibody (antibody, human IgG1, kappa, L234A L235A, N297A, name in Kabat numbering)
heavy: B1 heavy
chain: B1 chain
light: B1 light with L55T
notes: one-arm IgG1
KD ratio to GLS3000: 25.1 ratio

B6: CE115HA000/GLS3000 N53I one-arm antibody (antibody, human IgG1, kappa, L234A L235A, N297A, name in Kabat numbering)
heavy: B1 heavy
chain: B1 chain
light: B1 light with L55K, N58I
notes: one-arm IgG1
KD ratio to GLS3000: 2.69 ratio

B7: CE115HA000/GLS3000 K50R one-arm antibody (antibody, human IgG1, kappa, L234A L235A, N297A, name in Kabat numbering)
heavy: B1 heavy
chain: B1 chain
light: B1 light with L55R
notes: one-arm IgG1
KD ratio to GLS3000: 1.83 ratio

B8: CE115HA000/GLS3000 N53M one-arm antibody (antibody, human IgG1, kappa, L234A L235A, N297A, name in Kabat numbering)
heavy: B1 heavy
chain: B1 chain
light: B1 light with L55K, N58M
notes: one-arm IgG1
KD ratio to GLS3000: 1.21 ratio

B9: CE115HA000/GLS3000 L33V one-arm antibody (antibody, human IgG1, kappa, L234A L235A, N297A, name in Kabat numbering)
heavy: B1 heavy
chain: B1 chain
light: B1 light with L38V, L55K
notes: one-arm IgG1
KD ratio to GLS3000: 1.26 ratio

B10: CE115HA000/GLS3000 L33D one-arm antibody (antibody, human IgG1, kappa, L234A L235A, N297A, name in Kabat numbering)
heavy: B1 heavy
chain: B1 chain
light: B1 light with L38D, L55K
notes: one-arm IgG1
KD ratio to GLS3000: 37.5 ratio

B11: CE115HA000/GLS3000 L33I one-arm antibody (antibody, human IgG1, kappa, L234A L235A, N297A, name in Kabat numbering)
heavy: B1 heavy
chain: B1 chain
light: B1 light with L38I, L55K
notes: one-arm IgG1
KD ratio to GLS3000: 0.86 ratio

B12: CE115HA000/GLS3000 K107E one-arm antibody (antibody, human IgG1, kappa, L234A L235A, N297A, name in Kabat numbering)
heavy: B1 heavy
chain: B1 chain
light: B1 light with L55K, K112E
notes: one-arm IgG1
KD ratio to GLS3000: 0.95 ratio

B15: CE115HA000/GLS3000 N53K one-arm antibody (antibody, human IgG1, kappa, L234A L235A, N297A, name in Kabat numbering)
heavy: B1 heavy
chain: B1 chain
light: B1 light with L55K, N58K
notes: one-arm IgG1
KD ratio to GLS3000: 1.05 ratio

B18: CE115HA000/GLS3000 N53G one-arm antibody (antibody, human IgG1, kappa, L234A L235A, N297A, name in Kabat numbering)
heavy: B1 heavy
chain: B1 chain
light: B1 light with L55K, N58G
notes: one-arm IgG1
KD ratio to GLS3000: 1.33 ratio

B22: CE115HA000/GLS3000 N53E one-arm antibody (antibody, human IgG1, kappa, L234A L235A, N297A, name in Kabat numbering)
heavy: B1 heavy
chain: B1 chain
light: B1 light with L55K, N58E
notes: one-arm IgG1
KD ratio to GLS3000: 2.47 ratio

B23: CE115HA000/GLS3000 L33F one-arm antibody (antibody, human IgG1, kappa, L234A L235A, N297A, name in Kabat numbering)
heavy: B1 heavy
chain: B1 chain
light: B1 light with L38F, L55K
notes: one-arm IgG1
KD ratio to GLS3000: 0.65 ratio

B24: CE115HA000/GLS3000 L33M one-arm antibody (antibody, human IgG1, kappa, L234A L235A, N297A, name in Kabat numbering)
heavy: B1 heavy
chain: B1 chain
light: B1 light with L38M, L55K
notes: one-arm IgG1
KD ratio to GLS3000: 0.9 ratio

B25: CE115HA000/GLS3000 N53L one-arm antibody (antibody, human IgG1, kappa, L234A L235A, N297A, name in Kabat numbering)
heavy: B1 heavy
chain: B1 chain
light: B1 light with L55K, N58L
notes: one-arm IgG1
KD ratio to GLS3000: 1.62 ratio

B26: CE115HA000/GLS3000 L33P one-arm antibody (antibody, human IgG1, kappa, L234A L235A, N297A, name in Kabat numbering)
heavy: B1 heavy
chain: B1 chain
light: B1 light with L38P, L55K
notes: one-arm IgG1
KD ratio to GLS3000: 32.7 ratio

B29: CE115HA000/GLS3000 K50P one-arm antibody (antibody, human IgG1, kappa, L234A L235A, N297A, name in Kabat numbering)
heavy: B1 heavy
chain: B1 chain
light: B1 light with L55P
notes: one-arm IgG1
KD ratio to GLS3000: 27.7 ratio

B30: CE115HA000/GLS3000 N53F one-arm antibody (antibody, human IgG1, kappa, L234A L235A, N297A, name in Kabat numbering)
heavy: B1 heavy
chain: B1 chain
light: B1 light with L55K, N58F
notes: one-arm IgG1
KD ratio to GLS3000: 0.96 ratio

B31: CE115HA000/GLS3000 N53H one-arm antibody (antibody, human IgG1, kappa, L234A L235A, N297A, name in Kabat numbering)
heavy: B1 heavy
chain: B1 chain
light: B1 light with L55K, N58H
notes: one-arm IgG1
KD ratio to GLS3000: 1.31 ratio

B32: CE115HA000/GLS3000 L33E one-arm antibody (antibody, human IgG1, kappa, L234A L235A, N297A, name in Kabat numbering)
heavy: B1 heavy
chain: B1 chain
light: B1 light with L38E, L55K
notes: one-arm IgG1
KD ratio to GLS3000: 0.83 ratio

B35: CE115HA000/GLS3000 K50Y one-arm antibody (antibody, human IgG1, kappa, L234A L235A, N297A, name in Kabat numbering)
heavy: B1 heavy
chain: B1 chain
light: B1 light with L55Y
notes: one-arm IgG1
KD ratio to GLS3000: 195 ratio

Further lines, results first:

KD ratio to GLS3000: 1.01 ratio
B2: CE115HA000/GLS3000 N53W one-arm antibody (antibody, human IgG1, kappa, L234A L235A, N297A, name in Kabat numbering)
heavy: B1 heavy
chain: B1 chain
light: B1 light with L55K, N58W
notes: one-arm IgG1

KD ratio to GLS3000: 1.56 ratio
B13: CE115HA000/GLS3000 N53R one-arm antibody (antibody, human IgG1, kappa, L234A L235A, N297A, name in Kabat numbering)
heavy: B1 heavy
chain: B1 chain
light: B1 light with L55K, N58R
notes: one-arm IgG1

KD ratio to GLS3000: 1.94 ratio
B14: CE115HA000/GLS3000 P95G one-arm antibody (antibody, human IgG1, kappa, L234A L235A, N297A, name in Kabat numbering)
heavy: B1 heavy
chain: B1 chain
light: B1 light with L55K, P100G
notes: one-arm IgG1

KD ratio to GLS3000: 1.01 ratio
B16: CE115HA000/GLS3000 P95E one-arm antibody (antibody, human IgG1, kappa, L234A L235A, N297A, name in Kabat numbering)
heavy: B1 heavy
chain: B1 chain
light: B1 light with L55K, P100E
notes: one-arm IgG1

KD ratio to GLS3000: 2.37 ratio
B17: CE115HA000/GLS3000 P95D one-arm antibody (antibody, human IgG1, kappa, L234A L235A, N297A, name in Kabat numbering)
heavy: B1 heavy
chain: B1 chain
light: B1 light with L55K, P100D
notes: one-arm IgG1

KD ratio to GLS3000: 0.99 ratio
B19: CE115HA000/GLS3000 N53Y one-arm antibody (antibody, human IgG1, kappa, L234A L235A, N297A, name in Kabat numbering)
heavy: B1 heavy
chain: B1 chain
light: B1 light with L55K, N58Y
notes: one-arm IgG1

KD ratio to GLS3000: 0.88 ratio
B20: CE115HA000/GLS3000 N53S one-arm antibody (antibody, human IgG1, kappa, L234A L235A, N297A, name in Kabat numbering)
heavy: B1 heavy
chain: B1 chain
light: B1 light with L55K, N58S
notes: one-arm IgG1

KD ratio to GLS3000: 2.68 ratio
B21: CE115HA000/GLS3000 N53T one-arm antibody (antibody, human IgG1, kappa, L234A L235A, N297A, name in Kabat numbering)
heavy: B1 heavy
chain: B1 chain
light: B1 light with L55K, N58T
notes: one-arm IgG1

KD ratio to GLS3000: 0.98 ratio
B27: CE115HA000/GLS3000 N53P one-arm antibody (antibody, human IgG1, kappa, L234A L235A, N297A, name in Kabat numbering)
heavy: B1 heavy
chain: B1 chain
light: B1 light with L55K, N58P
notes: one-arm IgG1

KD ratio to GLS3000: 2.14 ratio
B28: CE115HA000/GLS3000 N53V one-arm antibody (antibody, human IgG1, kappa, L234A L235A, N297A, name in Kabat numbering)
heavy: B1 heavy
chain: B1 chain
light: B1 light with L55K, N58V
notes: one-arm IgG1

KD ratio to GLS3000: 1.28 ratio
B33: CE115HA000/GLS3000 N53Q one-arm antibody (antibody, human IgG1, kappa, L234A L235A, N297A, name in Kabat numbering)
heavy: B1 heavy
chain: B1 chain
light: B1 light with L55K, N58Q
notes: one-arm IgG1

KD ratio to GLS3000: 0.87 ratio
B34: CE115HA000/GLS3000 P95A one-arm antibody (antibody, human IgG1, kappa, L234A L235A, N297A, name in Kabat numbering)
heavy: B1 heavy
chain: B1 chain
light: B1 light with L55K, P100A
notes: one-arm IgG1
